For assay [1], the target named is HBV purified from blood of chronic hepatitis B patients (hHBV virions carrying hHBsAg) (hepatitis B virus from CHB patients). The experiment in a line: BLI, Siglec-3.Fc immobilized on the sensor, untreated hHBV in solution.
Assay [2] shares this target. Kind of assay: calculated from three BLI results by the multivalency equation of paragraph 89.
Assay [3] has as its target hHBV treated with sialidase S (hepatitis B virus from CHB patients). The experiment in a line: BLI, Siglec-3.Fc immobilized on the sensor, sialidase S-treated hHBV in solution. In general terms: In BLI a coated tip is dipped into the sample, and binding shifts an interference pattern.
Assay [4] deals with HBV purified from blood of chronic hepatitis B patients (hHBV virions carrying hHBsAg) (hepatitis B virus from CHB patients). The experiment in a line: BLI, Siglec-3.Fc immobilized on the sensor, hHBV in solution.

A word on the Kd: it is the concentration at which binding is half-saturated. By koff is commonly meant the rate constant with which the complex falls apart. A low value points to slow dissociation. As a reminder, the kon is a measure of how fast the partners come together. Low readings indicate slower complex formation, high ones faster complex formation.

In assay [1], “recombinant human Siglec-3 ECD.Fc fusion protein (from UniProt P20138 18-259)” showed a Kd of 0.591 nM, a dissociation rate constant (koff) of 0.000697 s⁻¹ and an on-rate constant (kon) of 1.18e+06 M⁻¹ s⁻¹. Besides, in assay [2], the valence (N) is 2. In assay [3], the Kd came out at 0.384 nM, the dissociation rate constant (koff) is 0.000273 s⁻¹ and the kon amounted to 711000 M⁻¹ s⁻¹. In assay [4], this substance gave a Kd of 0.115 nM, a dissociation rate constant (koff) of 0.000358 s⁻¹ and an association rate constant (kon) of 3.11e+06 M⁻¹ s⁻¹.

The values above are taken from patent publication US20210292413A1.
